For series [1] the following is noted: in vivo; cited from earlier work.
A further series has as its system trabecular meshwork. Conditions: cited from earlier work.
The conditions of series [2]: […] eye drops; cited from earlier work.
The nature of series [3]: Curcumin eye drops, retinal damage due to glaucoma. The settings on record: curcumin 1 to 5 percent in normal saline. Format: in vivo. From the text: We have used curcumin diluted in the normal saline from 1 to 5 percent after extracting it from turmeric using solvents such as DMSO and alcohol as well other known solvents. […] The sclera can be stained yellow that can be mistaken for jaundice. All the above antioxidants can be used with insulin as described above and there is no systemic reaction.

The conditions of series [4]: patients treated with latanoprost; cited from earlier work.

We go through 17 compounds from US20110294730A1, “METHOD OF TREATING GLAUCOMA AND INTRAOCULAR HYPERTENSION” (priority 2010, published 2011).

As for “Insulin aspart [Insulin aspart (NovoLog)]”, in series [1], the “Effective duration of action” value is 3 to 4 h, the Maximum duration is 4 to 6 h, the “Onset of Action” value was “¼-½” and the Peak action result was “½-1¼”.

Take TGF-a: exogenous growth factor: in the series with trabecular meshwork, the extracellular acidification result is “significantly stimulated”.

Take `CNC(=O)Oc1ccc2c(c1)[C@]1(C)CCN(C)[C@@H]1N2C` [physostigmine sulphate]: in series [2], the miosis result was “sustained miosis”.

Regarding FGF-1: exogenous growth factor, the extracellular acidification entry in the series on trabecular meshwork is given as “significantly stimulated”.

In the case of `COc1cc(/C=C/C(=O)CC(=O)/C=C/c2ccc(O)c(OC)c2)ccc1O` [curcumin], in series [3], the “improving the retinal damage” value is “very effective”.

In the case of “Insulin lispro [Insulin lispro (Humalog)]”, in series [1], the “Effective duration of action” value is 3 to 4 h, the Maximum duration is 4 to 6 h, the “Onset of Action” value was “¼-½” and the Peak action result is “½-1¼”.

For “NPH (isophane): intermediate-acting NPH (isophane) insulin”, in series [1], the “Effective duration of action” value was 10 to 16 h, the Maximum duration is 14 to 18 h, the “Onset of Action” value is 2 to 4 h and the Peak action was 6 to 10 h.

Take “Insulin detemir [Insulin detemir (Levemir)]”: in series [1], the “Effective duration of action” value is on record as 14 h, the Maximum duration is given as about 20 h, the “Onset of Action” value was 3 to 4 h and the Peak action is 6 to 8 h.

As for IGF-1: insulin like growth factor, the extracellular acidification entry with trabecular meshwork is on record as “significantly stimulated”.

Take 11-Ib: exogenous growth factor: in the series with trabecular meshwork, the extracellular acidification result is “significantly stimulated”.

In the case of EGF: exogenous growth factor, the extracellular acidification result with trabecular meshwork is given as “significantly stimulated”.

TNF-a: the extracellular acidification result in the series on trabecular meshwork is “significantly stimulated”.

In the case of `CC(C)OC(=O)CCC/C=C\C[C@@H]1[C@@H](CC[C@@H](O)CCc2ccccc2)[C@H](O)C[C@@H]1O` [latanoprost], the “increased iris pigmentation, share of patients” value in series [4] was at most 17%.

As for “Insulin glulisine [Insulin glulisine (Apidra)]”, in series [1], the “Effective duration of action” value was 3 to 4 h, the Maximum duration is 4 to 6 h, the “Onset of Action” value is given as “¼-½” and the Peak action entry is recorded as “½-1¼”.

For the compound HGF: exogenous growth factor, in the series on trabecular meshwork, the extracellular acidification entry is reported as “significantly stimulated”.

On to “Regular (soluble): short-acting regular (soluble) insulin”, for which, in series [1], the “Effective duration of action” value is 3 to 6 h, the Maximum duration was 6 to 8 h and the Peak action is 2 to 3 h.

As to “Insulin glargine [Insulin glargine (Lantus)]”, in series [1], the “Effective duration of action” value was 18 to 20 h, the Maximum duration was 20 to 24 h, the “Onset of Action” value was 3 to 4 h and the Peak action was 8 to 16 h.
